Holding throughout (experiment): SDS-PAGE without pre-heating, with zymogram; crude enzymes (high concentration of (NH4)2SO4) in loading buffer with 10% SDS, not pre-heated, 10% polyacrylamide gel; compared with samples heated at 100 °C for 5 min; dimer band active on xylan plate
In assay [1] the target is Xyn10A, GH10 family xylanase from Aspergillus fumigatus Z5 (Aspergillus fumigatus Z5).
In assay [2] the target is Xyn10AdC, CBM1 removed Xyn10A (Aspergillus fumigatus Z5).
In assay [3] the target is Xyn10AdLC, CBM1 and linker region removed Xyn10A (Aspergillus fumigatus Z5).

For orientation: stoichiometry N means a count of units in the complex or per binding partner. As for “Xyn10A, GH10 family xylanase from Aspergillus fumigatus Z5 (enzyme)”, in assay [1], the stoichiometry N was 2.

Take “Xyn10AdC, CBM1 removed Xyn10A (domain or fragment)”: the stoichiometry N in assay [2] was 2.

On to “Xyn10AdLC, CBM1 and linker region removed Xyn10A (domain or fragment)”, for which the stoichiometry N in assay [3] was 2.

These data come from article PMC5862715.
